50 sequences from the domain aggregation screens of Martell et al. (2025) can be followed below.
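Note: 20 min heating vs room temperature control held 20 min.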

A short description of this data set: soluble fraction after stress (log2 fold change); higher = more stays soluble; pooled small domains, quantitative proteomics. Particulars: stress: 75 degC.
On to “HMLPKILVMDGKVNKNALTTLGKDEEWVKKVLRNHNIHSIKDVLLALYDTKGKFQYQLYDDYEK”, for which the “soluble fraction (log2)” value was -0.248.
In the case of “HMLPKNITNTIDHWIQKFPQGKQRSAIIAALHAVQHHNKGFLTNDLLNQVADYIDVPKMNVYEVATFYSM”, the “soluble fraction (log2)” value is 0.169.
Turning to “HMLPLIEVPAVTGKYLTKAKSALKDAGLDTGDIKRVEHEEHGENYVLKQDPPAGTKVPFGTTVSLTVVAP”, the “soluble fraction (log2)” value was 0.427.
On to “HMLPLLEYLDPFTGKKTYTYLNPDTQHPIFTYYSYQDDKTGRTAYSYIDPLTGKAVNSDEPPMDILYD”, for which the “soluble fraction (log2)” value was -0.676.
As to “HMLPPHMEVRAIMILDKRPMALMNIEGEGDGLIVSPGYRFGDGRGRVVSITQTKVVVLWAGTSMEL”, the “soluble fraction (log2)” value is -2.82.
Take “HMLPQYELIKQYLRHQIETGEWPIGYRTPSEPKLAEQFSVSRMTARRALQELADQGLLSRTAGSGTFVAKP”: the “soluble fraction (log2)” value was -0.921.
For the sequence “HMLPVQGEEVAPGLYKFDFPFLADKRVWEKTINAFKAEHPELKVNYIYTGPDELNSKKKTHVLVYVFTES”, the “soluble fraction (log2)” value was -0.539.
As to “HMLPVYSITEAAERLDIPASTIKWYADRFASYISPSKGKGRKRFTPEDLATLQKIHELSQDHTTEEAEAML”, the “soluble fraction (log2)” value was -0.0974.
“HMLPYKGTVAVSLAVLHKAVGVGTADMLKAVGTLRQGTEVTVTGRNGPFAQLKNGLWMKESFLE”: the “soluble fraction (log2)” value was -1.07.
Consider “HMLQADALADPVGWALRTLGFDLEAGTPERSAIQRSFRQSLIEAHPDHGGADDEAAQRIADITEARRILLA”, for which the “soluble fraction (log2)” value was -0.403.
Next, “HMLQFTYPRLHTKKSWYVDFMSFDPGAGKMRRKKFMLDGIPKITDRRKRAAELIEVLTKQLRAGWSPWVNV”: -3.85.
Next, “HMLQIADEYLDRLQALFEDVRDNHFAIGDLLVELVDMHDSRRVDVINYIAGRLAISPTTLYDYENTARR”: -1.15; “HMLQLDATDRALIVATQGGLPLVPRPYQVVGEQLGISGEEVVARLRALLDAGVIRRIGAVPN”: -0.569.
With “HMLQLKEPLKKVYERLTPVPKTAETILAELWEKGEYLDIAALHRALMELELSGYVRQSSPGYFGTSA”, the “soluble fraction (log2)” value is -0.553.
As for “HMLQQKESAALGERLLNQALATLKVEPDAISWDRWEALAKEYGAKSQLDILADIGLGKRLSFVVAQALTKV”, the “soluble fraction (log2)” value is -1.25.
In the case of “HMLRDMIIQSYRYYTDKERNPRQVWNRMEADAFWEIIRDYEGYNGDGYVHTKIIPEMEALTVIEMDN”, the “soluble fraction (log2)” value was -1.83.
On to “HMLRISLAAARVNAEMTQEDVAREMHVSKNTVVNWEKGKSEPTISQSRELSKLYNMPLEYIFYL”, for which the “soluble fraction (log2)” value is -2.68.
Consider “HMLRKTTDLDAIRSVAKDVIDQNPKAVEDYVGGKESAIGFLLGQVMRATKGTADANTVRELLKEILDS”, for which the “soluble fraction (log2)” value was 1.01.
On to “HMLRPMVAILNKNISKGQVISEDYIKFEVRPERQIHGAYHDISEVLGRKTKNNIAAGTILKVRHLDT”, for which the “soluble fraction (log2)” value is -0.69.
As to “HMLRQVSDSNALETAVKKVLDANPEEVERYKSGNKKLISFFVGQTMKATKGAGNPKEINSILAKLL”, the “soluble fraction (log2)” value was -0.326.
Consider “HMLSAEAAAARTAISTLSEDQQRVLGLSIQRGLVHEQIARATGLPLGTVKTHIRRGLIKVREALEAQAAG”, for which the “soluble fraction (log2)” value was 0.00212.
Next, “HMLSAGETYTLGYLKASDGILFTAADGSEQTVMQRVQVRLYDNGDGTYTARLADDIAYSAVVTEDMIDK”: 0.27; “HMLSDAAAMESIAYEAIRQMEPDTYYIIGAGTTTRGIMEVLGLKNTLIGVDLIRNKELVANDLGGKELLSY”: 0.0782; “HMLSDEDMMELAIIENLQRENLNPIEEARAYESLIDKGFTHTEIADKMGKSRPYISNSIRLLSL”: 0.355.
Next, “HMLSDFHLNHDSIVNHTVQKKETIFSLSKKYGLSINEIIKANPGIQIDKLKRRSILIIPLRKK”: -1.81.
As to “HMLSDLTPGDLVVHATHGIGRFLGIRKLELEGMTKDYITIQYRGNENLYVPVTQMDLVSRYI”, the “soluble fraction (log2)” value was -1.
The result for “HMLSGGEVKRIEIATILARKSGLMIFDEPEAGIDLWSFARLVETFEDIRSNTSGSLVIISHQ” reads 0.0709; that for “HMLSKEERRSQLLDLGVRLLSTRSLDELSIDLLAEEAGISRGLLYHYFGNKHDFHEAVVRRAADDLI”, -2.15.
As for “HMLSLKAQVYEIIRQKILQQEYALGEKINIDTVADELKISNSPIREALMMLSQDGLIEMVPNNGARVI”, the “soluble fraction (log2)” value was -1.88.
Take “HMLSLSDIINDVMERLTREKNLTFDELLGEKRERRRIVYTFLALLELIRLKMIKAYQTAAFGVIRIFPR”: the “soluble fraction (log2)” value is -1.4.
With “HMLSLTSRQQEIFDLIKGHIKKTGMPPTRSEIALHFGFRSANSAEEHLRALARKGFIELIPGTSRGIKLIE”, the “soluble fraction (log2)” value is -1.87.
Next, “HMLSPPWYEYHRKVQAMFGRDPEVHIKDLDDLGDGKFSYMILVYNKEKAEAIKAILPQKVEMGNVTIETAI”: -1.87; “HMLSRNEWLVMEALWERPSTLMELVRQLGQEPPGWAKSTTATMVRRMEEKGLIRHEAGSKARVYHP”: -1.82.
In the case of “HMLSSAAAIDRILAGGTAAMNHRQFDAALTSFNTVIEMRPDFAEGWNKRATLYYLIGEYERSIADVERTLA”, the “soluble fraction (log2)” value worked out at 0.183.
Consider “HMLSTRERMSSLMAQLQVQQFMPFHRLFTISEGRMGVIVTFLAMMELVKENLIKLIQAQEYGPIHVSLG”, for which the “soluble fraction (log2)” value came out at 0.467.
In the case of “HMLSVRERMSAILVSLEGERYADFTGLFDPTEGKGGVTVTFLAILELLKESMIDVVQNELYGPIHVRAA”, the “soluble fraction (log2)” value was -1.07.
Consider “HMLSVRNRMSDVLKSLDDGEFHRFESLFNLEEGRLGVVVTFLAMLELAKEMLVEIVQNESLGPIYLKSR”, for which the “soluble fraction (log2)” value amounted to 0.041.
In the case of “HMLSVRQRMGELLERLADGQFHRFESLFTVEEGKLGVVVTFLGLLTLAKEQLLDIVQEGPTAPIYVKSLA”, the “soluble fraction (log2)” value was -0.569.
For “HMLSVTLTVLPQQAGERLDAFAAAESTLSRSAAAKLIEDGQITVNGARAAKNYRLRAGDVIEIDEPEPI”, the “soluble fraction (log2)” value is -0.0471.
Turning to “HMLTAPMPGTIQQILVTKGQKVRSGQTLMILEAMKMEHKIKAPNSGEIISINYSLGNRVEMGANLIEI”, the “soluble fraction (log2)” value was -2.1.
On to “HMLTDAAAVKRSVRNLVQYGFYEKPFHPEIGSGVRDLLFENMTPFVANNLSKQIEEIITNYEPRA”, for which the “soluble fraction (log2)” value is -0.314.
For “HMLTDMSKIRKVLKLYGKGNSKLFISTYLSLSRNTVKKYISLFEVSGKTIEEILAKSDSELELLFSG”, the “soluble fraction (log2)” value is -0.981.
Next, “HMLTEREQDTLNFIRQYIDEQGRSPLVSEIAKGLGIKSQGTTHRYIQALVDAGLLERHVGRTRGLHLT”: -0.0653; “HMLTGADAEKATAAAQAEFPGGTVLRVETDADGTYEAHVRKADGTEVEVKMDKDFKVTSVEE”: 0.142; “HMLTLAVPNSINMRLDKYLSENIDYLSRSKIQGLINDGKVTINGENEKSSYKLNGDESIVIYYEE”: -0.377.
As to “HMLTPQEIGSRLKLVRQGLQLKQQEVAEIIGTSQLKISKIEQGATVTTPDFLKLLAFYSQSVSLDILF”, the “soluble fraction (log2)” value is -0.546.
As to “HMLTRQRKQLLEYLSKHTDEQMTARQIADALTAESISISAVYRNLSALEEEGILKRSIRENTREVYYQYIA”, the “soluble fraction (log2)” value was -1.57.
Consider “HMLTSIDQMLKLAMPDSDITVSKMNGLILLTGTVKAPEDAAEAERLVQAFSAPPPGQPPVTVVSRLRTA”, for which the “soluble fraction (log2)” value is -0.402.
As for “HMLTTMSSQWKPSLDAIEILEKSGIAYSFIEDAIPEFVLYWRERGISHGAWNTKFVEHIRKQWAKFEAS”, the “soluble fraction (log2)” value is -1.73.
For “HMLTTVAAQRAALHQEEDITKLREIILKLVPFWGLDGGAYADKETSIQLERQYRESFDQAVSAARRSGQA”, the “soluble fraction (log2)” value is -0.335.
